# Data from PMC7763088, “Impact of Different Lipid Ligands on the Stability and IgE-Binding Capacity of the Lentil Allergen Len c 3” (Biomolecules, 2020).
# Where two headings read alike, the source gives them in different places.
# How the values were obtained:
# [1] = biological target: T1, rLen c 3 (Lens culinaris, UniProt A0AT29); experiment: Effect of lipid ligands on secondary structure and thermostability of rLen c 3 (CD spectroscopy); assay type: physicochemical, lentil; conditions: pH 7.4, ligand 1 mM
# T1 construct: with the formation of the large fragment 1–80 and the protein without C-terminal Phe93; His8-TrxL (octahistidine-thioredoxin carrier) (N, cleaved yes); made in house; host or cells: Escherichia coli BL-21 (DE3)
# T1 sequence (A0AT29 26-118): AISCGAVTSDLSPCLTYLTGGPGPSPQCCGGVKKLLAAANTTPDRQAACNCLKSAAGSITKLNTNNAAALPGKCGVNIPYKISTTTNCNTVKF
# Procedure: (§1) Circular dichroism spectra were recorded at different temperatures, using a J-810 spectropolarimeter (Jasco, Hachioji, Tokyo, Japan) in a 0.1 cm path length quartz cell (Hellma GmbH & Co. KG, Mullheim, Germany) in the 190–250 nm range, and 0.2, using solutions of rLen c 3 in 10 mM phosphate buffer, pH 7.4, or 150 mM sodium chloride, pH 2.5, simulated gastric fluid, at a concentration of 17 µM. Fatty acids or lysolipids were added at a final concentration of 1 mM. Each experiment was performed twice, independently.
# [2] = biological target: T1, rLen c 3; experiment: TNS displacement lipid binding assay; set-up: species or system lentil; conditions: for IC50: 25 °C, 4 μM TNS, 4 μM rLen c 3, read-out: IC50 (TNS displacement)
# Procedure: The ability of rLen c 3 to bind lipids was assayed by monitoring the displacement of the fluorescent probe TNS. Fluorescence intensity was measured at 25 °C with a F-2710 spectrofluorimeter (Hitachi, Tokyo, Japan), using a […] slit width for both excitation (λ = 320 nm) and emission (λ = 437 nm) and the measurement taken for no longer than 1.5–2 s. After equilibrating TNS (4 μM) in 10 mM phosphate buffer, pH 7.4, or 150 mM sodium chloride, pH 2.5, for 2 min with gentle mixing, the 2 mM of competing ligand was titrated into the 2 mL of 4 μM rLen c 3 solution in 1 μL aliquots. The resulting data were fitted by using a sigmoidal curve-fitting in GraphPad Prism from which the concentration able to displace 50% of the TNS (IC50) was calculated. The dependence of the ligand binding on temperature was performed at 20, 40, 60, 90, and 20 °C, after cooling down as previously described. Temperature was checked with a temperature probe in the cuvette. Each experiment was performed in triplicate, independently.
# [3] = biological target: T1, rLen c 3; experiment: ELISA of IgE binding to rLen c 3 preincubated with lipid ligands; set-up: species or system lentil; conditions: preincubation with 60 μM ligand, sera with 10 μM ligand; sera from 10 patients; p > 0.1
# Procedure: To study the effects of lipid ligands on IgE binding capacity of allergen, rLen c 3 was covalently bound to Nunc Immobilizer Amino surface plates (Thermo Scientific, Waltham, MA, USA), according to peptide coupling protocol. rLen c 3 solution (100 μg/mL) in 100 mM sodium carbonate, pH 9.6, was added to the wells; after that, the plates were incubated at 25 °C for 2 h. Then 10 mM ethanolamine at the same buffer was used for the plates post-coupling at 25 °C for 1 h. Pre-incubation with PBS or lipid ligand solutions in PBS at concentration of 60 μM was performed overnight at 4 °C. After that, the plates were incubated with selected sera in 1:4 dilution, overnight, at 4 °C, with the absence or presence of 10 μM lipid ligands, due to the reversibility of Len c 3-ligand complexes. Subsequent steps of ELISA were carried out as described above. This experiment was performed twice, independently.
# [4] = biological target: T1, rLen c 3; experiment: Effect of lipid ligands on gastrointestinal digestion of rLen c 3; assay type: in vitro ADME, lentil
# Procedure: (§2) Simulation of gastrointestinal digestion in vitro was performed as described in [15]. Briefly, gastric digestion was performed for 2 h, using 50 ng of pepsin (p) (Sigma) per 1 μg of rLen c 3 in 0.1 M HCl, pH 2.0 (final protein concentration 0.05 mM). For duodenal digestion, pH of the mixture resulting from gastric digestion was adjusted to 8.0 by addition of ammonium bicarbonate. The obtained mixture was incubated for 24 h at 37 °C with 2.5 ng of trypsin (t) (Promega, Madison, WI, USA) and 10 ng of α-chymotrypsin (ch) (Sigma) per 1 μg of the substrate. Degree of proteolysis was monitored by sodium dodecyl sulfate polyacrylamide gel electrophoresis (SDS-PAGE) under reducing conditions and reversed-phase high-performance liquid chromatography (RP-HPLC) on Luna C18 column (5 μm, 250 × 4.6 mm; Phenomenex, Torrance, CA, USA) at a flow rate of 0.5 mL/min, using a gradient of acetonitrile concentration from 5 to 65% for 45 min in 0.1% trifluoroacetic acid (TFA). Gel analysis was performed, using a densitometer. Electroblotting and subsequent N-terminal protein sequencing were performed as described. The protein was preheated at 100 °C for 30 min to study the effect of temperature on allergen stability. rLen c 3 was preloaded with various lipid ligands (LTP to lipid molar ratio 1:4) for 10 min, in order to investigate their effects on allergen resistance to proteolytic digest. As a control of the influence of lipid ligands on the work of proteolytic enzymes, the same reactions were carried out, using bovine α-casein (Sigma) as a substrate. Some independent experiments were performed in each case.
# [5] = tested on: pepsin; experiment: In vitro gastric digestion (SDS-PAGE); assay type: in vitro ADME; conditions: pepsin, pH 2.0, 2 h
# Procedure: as §2, with “As a control of the influence of lipid ligands on the work of proteolytic enzymes, the same reactions were carried out, using bovine α-casein (Sigma) as a substrate. Some independent experiments were performed in each case.” left out
# [6] = tested on: trypsin and α-chymotrypsin; experiment: In vitro duodenal digestion after gastric digestion (SDS-PAGE densitometry); assay type: in vitro ADME
# Procedure: as §2
# [7] = Circular dichroism spectroscopy of rLen c 3 (pH and heat stability, secondary structure); assay type: physicochemical; conditions: for random (secondary structure estimation from Far-UV CD spectra) / turn (secondary structure estimation from Far-UV CD spectra) / α-helix (secondary structure estimation from Far-UV CD spectra) / β-sheet (secondary structure estimation from Far-UV CD spectra): lipid 1 mM where added
# Procedure: as §1
# [8] = tested on: specific IgE in sera of allergic patients; experiment: ELISA of sIgE binding to intact, heated or digested rLen c 3; set-up: species or system human
# Procedure: Sera from allergic patients (n = 100) with food and pollen allergy were obtained from the Clinical Diagnostic Center of G.N. Gabrichevsky Research Institute for Epidemiology and Microbiology. The work with human sera was approved by the local ethical committees of this Institute (FS-99-01-009026, Moscow, Russia). The amount of specific IgE (sIgE) to allergen extracts in the patient sera was determined by using RIDA qLine Allergy Panel 1-4 (R-Biopharm, Pfungstadt, Germany). Screening of sera containing sIgE to peach Pru p 3 and Len c 3 was performed by ELISA. For that, plate wells (Corning Incorporated, Corning, NY, USA) were coated with recombinant allergen (0.5 μg/well) in 0.01 M phosphate buffered saline (PBS), pH 7.4, for 1 h, at 37 °C; saturated with 2% bovine serum albumin (SERVA, Heidelberg, Germany) in PBS buffer for 1 h, at 37 °C; and then incubated with the sera of allergic patients (1:4 dilution), for 2 h, at 37 °C. Specific IgE binding was detected by using peroxidase-conjugated anti-human IgE from goat (Sigma) (1:2000 dilution), and 3,3′,5,5′-tetramethylbenzidine (TMB) liquid substrate system for ELISA (Sigma). The enzymatic reaction was stopped after 30 min by 2 N H2SO4 and absorbance values were determined at 450 nm. Moreover, 0.01 M PBS with 0.05% Tween-20 was used as a washing solution on each step. For sIgE binding experiments with the intact or heated (at 100 °C for 30 min) or digested (gastric and subsequent duodenal digestion for 2 h) rLen c 3, patient sera containing sIgE were selected (Table S3). Intact and treated rLen c 3 samples were coated in wells of 96-well plates (0.5 μg/well), and ELISA was performed as described above. Sera samples from non-allergic individuals were used as a negative control.
# [9] = 20 °C end (after cooling down from 98.5 °C), pH 7.4
molecule,measurement,setting,value
"CCCCCCCCCCCCCCCC(=O)OC[C@@H](O)COP(=O)(O)OCC(O)CO (stereo partly drawn) [LPPG, lyso-palmitoyl phosphatidylglycerol]",Recovery of rLen c 3 structure after cooling down in the presence of ligand,[1]; cooling down to 20 °C after 98.5 °C,complete recovery of the native conformation
same,Effect of ligand on rLen c 3 thermostability (resistance to thermal denaturation),[1]; heating up to 98.5 °C,most pronounced effect
same,IC50,"[2]; 10 mM phosphate buffer, pH 7.4",4.3 ± 0.2 µM
same,IC50,"[2]; 150 mM sodium chloride, pH 2.5",4.3 ± 0.03 µM
same,Change of rLen c 3 affinity for the ligand at acidic pH,[2]; pH 2.5 compared with pH 7.4,remained unchanged
same,Ability of rLen c 3 to bind the ligand after heating and cooling down,"[2]; pH 7.4, heated from 20 to 90 °C, then cooled down to 20 °C",almost completely restored
same,Effect of ligand on IgE binding capacity of rLen c 3,[3],small increase
same,Degradation of rLen c 3 in the presence of ligand,"[4]; 24 h of duodenal digestion, LTP to lipid molar ratio 1:4",~ 55%
same,Effect of protein preheating before digestion in the presence of ligand on rate of allergen degradation,"[4]; after 4 and 24 h, effect more pronounced with LPPC",slightly increased
same,Effect of ligand on rLen c 3 degradation rate (proteolytic digestion),"[4]; gastric then duodenal digestion, LTP to lipid molar ratio 1:4",more pronounced
"rLen c 3: recombinant lentil allergen Len c 3, a lipid transfer protein, overexpressed in Escherichia coli",Stability to gastric digestion,[5],remarkable stability
same,Intact protein cleaved (densitometric gel analysis),[6]; 30 min of duodenal digestion after 2 h gastric digestion,more than 65%
same,Intact protein cleaved (densitometric gel analysis),[6]; 2 h of duodenal digestion after 2 h gastric digestion,> 85%
same,rLen c 3 degradation,[6]; 24 h of duodenal digestion,100%
same,Effect of protein preheating on degradation,[6]; preheating at 100 °C for 30 min before digestion,slightly increased an efficiency of the allergen degradation
same,random (secondary structure estimation from Far-UV CD spectra),[7]; [9],34.9%
same,turn (secondary structure estimation from Far-UV CD spectra),[7]; [9],21.8%
same,α-helix (secondary structure estimation from Far-UV CD spectra),[7]; [9],5.6%
same,β-sheet (secondary structure estimation from Far-UV CD spectra),[7]; [9],37.7%
same,random (secondary structure estimation from Far-UV CD spectra),"[7]; 20 °C, pH 7.4",30.3%
same,α-helix (secondary structure estimation from Far-UV CD spectra),"[7]; 20 °C, pH 7.4",28.4%
same,β-sheet (secondary structure estimation from Far-UV CD spectra),"[7]; 20 °C, pH 7.4",19.1%
same,Protein folding state on heating,"[7]; 98.5 °C, pH 7.4",almost completely unfolded
same,random (secondary structure estimation from Far-UV CD spectra),"[7]; 98.5 °C, pH 7.4",33.9%
same,turn (secondary structure estimation from Far-UV CD spectra),"[7]; 98.5 °C, pH 7.4",22.0%
same,α-helix (secondary structure estimation from Far-UV CD spectra),"[7]; 98.5 °C, pH 7.4",6.6%
same,β-sheet (secondary structure estimation from Far-UV CD spectra),"[7]; 98.5 °C, pH 7.4",37.4%
same,Recovery of CD spectrum after cooling down,"[7]; cooled down to 20 °C after 98.5 °C, pH 7.4",not recovered
same,CD spectrum at acidic pH mimicking gastric juice,"[7]; pH 2.5 vs pH 7.4, 20 °C",remains almost unchanged
same,Temperature required for allergen denaturation,"[7]; pH 7.4, also shown in ref 17",above 80 °C
same,IgE-binding capacity after heating,"[8]; 100 °C for 30 min, vs intact rLen c 3, patient sera 1:4",significantly (p < 0.001) reduced
same,IgE-binding in rPru p 3 IgE+ sera,"[8]; all rPru p 3 IgE+ sera, compared with rPru p 3",lower values than for rPru p 3
same,IgE-binding capacity after proteolytic digestion,"[8]; gastric and subsequent duodenal digestion for 2 h, vs intact rLen c 3, patient sera 1:4",significantly (p < 0.001) reduced
